A short description of the data set: protein stability index of a GFP-peptide fusion (GPS, HEK-293T) (PSI 1-6); higher = more stable.
Where [1] appears, read: treatment: DMSO, c terminus: a fixed tail appended.
Where [2] appears, read: treatment: MLN4924 1 uM, 8 h, c terminus: a fixed tail appended.

± gives the standard deviation.
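Further: 24-mer peptide tiles fused after GFP, lentivirally expressed, FACS-sorted into six equal bins by GFP/DsRed ratio, decoded by Illumina sequencing, PSI is the read-weighted mean bin number.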

As to DECEKAYFYMSCLVKHKRIHSREK [ZNF649], the protein stability index reads like this: under setting [1], 2.69 ± 0.14; under setting [2], 2.9 ± 0.35.
The like results for DFDYNAIDNANRILGPAYFVTYVF [PKD2L1] were, in that order, 2.73 ± 0.6 and 2.66 ± 0.59.
For DFLETPELTSTMLVPASWWILNN [NECAB1], the protein stability index reads like this: (treatment: DMSO, c terminus: native) 2.21 ± 0.35; (treatment: MLN4924 1 uM, 8 h, c terminus: native) 2.18 ± 0.25.
Regarding DGIDRWIKEIDEHAPGVPRILVGN [RAB40C], the protein stability index came out at 3.81 ± 0.19 under setting [1] and 3.59 ± 0.26 under setting [2].
The like results for DGYGMTPLLSASVTGHTNIVDFLT [FEM1C] were, in that order, 3.01 ± 0.27 and 3.1 ± 0.28.
With DIWSKSNYQVFQKVTDHATTALLH [MED27], the protein stability index came out at 2.44 ± 0.27 under setting [1] and 2.34 ± 0.31 under setting [2].
Turning to DKILALVPETIHDELQQSFQKSHN [PRIM1], the protein stability index reads like this: under setting [1], 3.85 ± 0.42; under setting [2], 3.93 ± 0.47.
With DLEMKEEEEISETGELVGPFVSAM [ZBED2], the protein stability index runs as follows: under setting [1], 5.29 ± 0.27; under setting [2], 5.27 ± 0.12.
Take DLLLWIQKHTEVETVDLVLKLKNK [DENND6A]: the protein stability index by setting is: under setting [1], 2.57 ± 0.63; under setting [2], 2.21 ± 0.45.
Regarding DLRINLWNFEITNQSFNIVDIKPA [PPP2R2B], the protein stability index by setting is: under setting [1], 2.47 ± 0.86; under setting [2], 2.4 ± 0.07.
Turning to DLTFAPDGSLILVSASRDKTLRVW [WSB1], the protein stability index is 2.32 ± 0.31 under setting [1] and 2.37 ± 0.099 under setting [2].
The like results for DLVDSLKLAVFMWLMTYVGAVFNG [RTN3] were, in that order, 3.02 ± 0.59 and 3.2 ± 0.051.
For DLVNRTPWKKCCFSGDGEYIVAGS [RBBP5], the protein stability index was 2.64 ± 0.25 under setting [1] and 2.37 ± 0.21 under setting [2].
With DPEVLEAVGDRQDGLREQLQAPVP [PBXIP1], the protein stability index reads like this: under setting [1], 5.43 ± 0.27; under setting [2], 5.4 ± 0.24.
For DPGPEPEEEPGVRNGMASEGLNSS [PSD2] the same measures were 5.58 ± 0.25 and 5.44 ± 0.35.
DPLSTNYSLAPNTPINQNVSLHQA [NFE2L1] gave a protein stability index under setting [1] of 4.25 ± 0.45 and a protein stability index under setting [2] of 4.46 ± 0.16.
Turning to DQDTLAPLPHPGAAPWPMAFPYQY [DVL3], the protein stability index runs as follows: under setting [1], 3.15 ± 0.29; under setting [2], 3.12 ± 0.25.
Regarding DQEIKFFRCLFEAEITQIQSHISD [KRT71], the protein stability index under setting [1] worked out at 2.25 ± 0.36 and the protein stability index under setting [2] was found to be 2.34 ± 0.77.
As to DQTTSEETVGGAILDQTTSEDAVG [HDAC6], the protein stability index by setting is: under setting [1], 5.54 ± 0.2; under setting [2], 5.54 ± 0.26.
The like results for DRGPKGEKGEKGDRAGDASKDILL [SCARA5] were, in that order, 5.35 ± 0.27 and 4.69 ± 0.49.
For DRNTKRDVTLEASRESSKPRAVLK [PPP2R2C] the same measures were 4.62 ± 0.23 and 4.79 ± 0.17.
DRVLNYTSWSQHCPWEPQKQPPWE [SPAG8]: the protein stability index is 2.87 ± 0.2 under setting [1] and 2.96 ± 0.15 under setting [2].
Take DSDNSGGGGGGGGGGGGGGGTSSN [ANKRD17]: the protein stability index is, setting by setting: under setting [1], 5.39 ± 0.31; under setting [2], 5.58 ± 0.22.
Take DSKPESALGAPSKSPSSPQAAFTQ [TBX5]: the protein stability index by setting is: under setting [1], 5.18 ± 0.36; under setting [2], 5.21 ± 0.19.
The like results for DSSCSGQPIHLWQFLKELLLKPHS [SPDEF] were, in that order, 2.47 ± 0.21 and 2.46 ± 0.16.
For DSTNVEAAFQTILTEIYRIVSQKQ [RAB11A], the protein stability index under setting [1] was found to be 2.26 ± 0.35 and the protein stability index under setting [2] was found to be 2.46 ± 0.034.
On to DVEDLQRDKARLLREKVEFLRSLR [NFE2L1], for which the protein stability index amounted to 3.33 ± 0.48 under setting [1] and 3.18 ± 0.34 under setting [2].
The like results for DVHELFLQMAVLVEKQADTLNVIE [STX11] were, in that order, 2.2 ± 0.16 and 2.27 ± 0.27.
The like results for DVKTNVQLLKGRVDNISTLDSEIK [CD207] were, in that order, 3.74 ± 0.48 and 4.01 ± 0.3.
In the case of DVMLEELSLLTNRGSKMFKLRQMR [MYOZ1], the protein stability index amounted to 2.48 ± 0.19 under setting [1] and 2.67 ± 0.29 under setting [2].
The like results for DVQLGDIILTATDGLFDNMPDYMI [PPTC7] were, in that order, 2.58 ± 0.33 and 2.62 ± 0.42.
For the sequence DWASNKVMFKIGDLGHVTRISSPQ [WEE1], the protein stability index is, setting by setting: under setting [1], 2.53 ± 0.25; under setting [2], 2.64 ± 0.41.
The sequence EADASHCIQQILEAVLHCHQMGVV [CAMK2A] displayed a protein stability index under setting [1] of 3.3 ± 0.15 and a protein stability index under setting [2] of 2.86 ± 0.71.
On to EAEQSLRNLEDIHMSLEKDIAAMT [TEKT4], for which the protein stability index reads like this: under setting [1], 4.58 ± 0.25; under setting [2], 4.8 ± 0.14.
For the sequence EAITDEERAPTATFHDSKHNIVHV [WDFY2], the protein stability index reads like this: under setting [1], 4.72 ± 0.13; under setting [2], 4.63 ± 0.3.
EAKALLKERQKKDNHNLIERRRRF [TFE3]: the protein stability index came to 4.21 ± 0.32 under setting [1] and 4.38 ± 0.2 under setting [2].
Turning to EANADLEVKIRDWHLKQSPASPER [KRT13], the protein stability index worked out at 4.79 ± 0.15 under setting [1] and 4.97 ± 0.27 under setting [2].
As to EAPDSLNGPLGPSEASIASNLQAM [SMG5], the protein stability index is 4.99 ± 0.21 under setting [1] and 4.91 ± 0.25 under setting [2].
The like results for EAQHGPHSAVARISRAQYNALTLT [STX11] were, in that order, 3.32 ± 0.11 and 3.47 ± 0.31.
For the sequence ECAMETTEEQTRQERQGPAKPEVL [NECAB1], the protein stability index is, setting by setting: under setting [1], 5.57 ± 0.33; under setting [2], 5.6 ± 0.23.
As to ECGKTFIYNSHLVVHQRVHSGEKP [ZNF232], the protein stability index was found to be 2.96 ± 0.37 under setting [1] and 2.9 ± 0.49 under setting [2].
Take ECLKRQGQREPGSLSRNNSFRRNV [FBXO34]: the protein stability index worked out at 4.11 ± 0.26 under setting [1] and 4.22 ± 0.18 under setting [2].
Consider EDDDEEDTDKLLNSASDPSLKDGL [PSD2], for which the protein stability index was determined as 5.51 ± 0.3 under setting [1] and 5.46 ± 0.33 under setting [2].
Consider EDDPLLDAQLLPHHSLQAHFRPRF [TMEM192], for which the protein stability index by setting is: under setting [1], 3.57 ± 0.35; under setting [2], 3.53 ± 0.15.
On to EDGPGKEEAPELDEAELDYLMDVL [SERTAD1], for which the protein stability index by setting is: under setting [1], 5.08 ± 0.12; under setting [2], 5.01 ± 0.21.
Regarding EDHGLVTCSADHLIILWKNGERES [WDR41], the protein stability index was determined as 3.27 ± 0.28 under setting [1] and 2.74 ± 0.21 under setting [2].
Turning to EDLLQQMLERRYTPYPNLYPDQSP [CLCN6], the protein stability index is, setting by setting: under setting [1], 3.28 ± 0.24; under setting [2], 3.29 ± 0.15.
Consider EDQPINLCDKLPPATALGTASYPS [NOL4L], for which the protein stability index under setting [1] amounted to 4.6 ± 0.19 and the protein stability index under setting [2] came to 4.62 ± 0.084.
In turn, EDYSRDEDHIAHIIELLGSIPRHF [SRPK2] came in with a protein stability index under setting [1] of 2.62 ± 0.13 and a protein stability index under setting [2] of 2.85 ± 0.31.
The like results for EEAAMQKCLVTEAQTLLRLSGVQR [RSAD1] were, in that order, 3.51 ± 0.15 and 3.52 ± 0.35.
Turning to EEEKLKAEEIRIKGKYNISSEDYR [KCNK9], the protein stability index runs as follows: under setting [1], 5.21 ± 0.19; under setting [2], 5.29 ± 0.13.
For EEEPTGAGLNKDKETEERTDGERV [SDE2] the same measures were 5.84 ± 0.13 and 5.61 ± 0.37.
As for EEGLADEEKKLRRSQHARKETEFL [STK38L], the protein stability index is, setting by setting: under setting [1], 5.33 ± 0.08; under setting [2], 5.2 ± 0.39.
